The target in this series is T1, APPI-WT (SEQ ID NO: 25), soluble, expressed in Pichia pastoris.
T1 chain: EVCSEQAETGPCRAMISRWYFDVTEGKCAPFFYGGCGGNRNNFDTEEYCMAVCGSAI

B1: human mesotrypsin (catalytically active) (protein)
chain: IVGGYTCEENSLPYQVSLNSGSHFCGGSLISEQWVVSAAHCYKTRIQVRLGEHNIKVLEGNEQFINAAKIIRHPKYNRDTLDNDIMLIKLSSPAVINARVSTISLPTTPPAAGTECLISGWGNTLSFGADYPDELKCLDAPVLTQAECKASYPGKITNSMFCVGFLEGGKDSCQRDSGGPVVCNGQLQGVVSWGHGCAWKNRPGVYTKVYNYVDWIKDTIAANS
On to B1, for which the Kcat (s^-1) of hydrolysis of APPI by mesotrypsin (HPLC time course) was found to be 0.0356 s⁻¹.

The values above are taken from patent US20180362616.
